Laboratory results published in article PMC3791423.

Key:
[1] = biological target: single-chain linked PspF_(1–275) WT/W56A dimer (E. coli) (UniProt P37344); test: SEC; linked PspF_(1–275) dimers injected at 70 μM, without and with PspA_(1–186), no nucleotide, 4 °C, Yarra Sec-S3000 column; apparent oligomers
PspA_(1–186) (E. coli) [2] = biological target: PspA_(1–186) (E. coli) (UniProt P0AFM6)
[3] = biological target: single-chain linked PspF_(1–275) WT/WT dimer (E. coli) (UniProt P37344); test: SEC; linked PspF_(1–275) dimers injected at 70 μM, without and with PspA_(1–186), no nucleotide, 4 °C, Yarra Sec-S3000 column; apparent oligomers
PspA_(1–186) (E. coli) [4] = biological target: PspA_(1–186) (E. coli) (UniProt P0AFM6); test: as above

Row | Substance | stoichiometry N (PspF (1–275) subunits) [1] | reduction of RPO formation (supercoiled nifH promoter) in the presence of PspA (1–186) (PspA_(1–186) (E. coli) [2]) [%] | stoichiometry N (PspF (1–275) subunits) [3] | stoichiometry N (PspA (1–186) subunits per PspF hexamer) (PspA_(1–186) (E. coli) [4])
1 | single-chain linked PspF_(1–275) WT/W56A dimer (from UniProt P37344 1-275; P37344 1-275) | 6 | 10 |  | 
2 | single-chain linked PspF_(1–275) WT/WT dimer (from UniProt P37344 1-275; P37344 1-275) |  | 100 | 6 | 6
